Experimental findings from patent US20210024620A1 are described below.

In experiment [1] the target is rat FcRn (rat) (UniProt P13599). Kind of experiment: Biacore, pH 7.4, steady state response.
Experiment [2] deals with Human CD16a (FcγRIIIa V158) with C-terminal HPC4 tag (human) (UniProt P08637). Kind of experiment: Biacore, FcγRIIIa V158 captured, steady-state fit, apparent KD. In general terms: In SPR one partner is held on a chip, and binding of the other changes the refractive index at the surface.
Chain of Human CD16a (FcγRIIIa V158) with C-terminal HPC4 tag (human) (P08637 17-208 F176V): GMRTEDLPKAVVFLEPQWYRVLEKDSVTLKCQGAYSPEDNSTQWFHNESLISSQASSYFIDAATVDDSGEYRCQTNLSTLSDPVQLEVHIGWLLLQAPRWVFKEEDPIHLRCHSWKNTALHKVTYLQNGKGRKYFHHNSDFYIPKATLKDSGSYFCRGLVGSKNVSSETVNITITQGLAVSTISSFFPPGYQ
The target of experiment [3] is rat FcRn (rat) (UniProt P13599). Kind of experiment: Biacore, pH 6.0, apparent KD.
The target is the same in experiment [4]. Kind of experiment: Biacore SPR, pH 7.4, 1000 nM antibody.
Experiment [5] has as its target FcRn immobilised on the FcRn affinity column (biotinylated cynoFcRn in one experiment, biotinylated hFcRn in another). Kind of experiment: FcRn affinity chromatography, linear pH gradient; species of the immobilised FcRn not given.
Experiment [6] deals with rat FcRn (rat) (UniProt P13599). Kind of experiment: Biacore, pH 6.0.
The target is the same in experiment [7]. Kind of experiment: Biacore SPR, pH 6.0.
For experiment [8] the target is unchanged. Kind of experiment: Octet BLI, pH 6.0.
Experiment [9] concerns the target biotinylated human FcRn (human) (UniProt P55899). Kind of experiment: Biacore, pH 7.4, steady state response.
In experiment [10] the target is biotinylated human FcRn (p51 subunit residues 24-297 with C-terminal Avi-tag; beta2-microglobulin residues 21-119) (human) (UniProt P55899). Kind of experiment: Biacore; affinity at pH 6.0 (M^-1) over steady state RU at pH 7.4.
Chain of biotinylated human FcRn (p51 subunit residues 24-297 with C-terminal Avi-tag; beta2-microglobulin residues 21-119) (human) (P55899 24-297 limits assumed, chain 1 of 2): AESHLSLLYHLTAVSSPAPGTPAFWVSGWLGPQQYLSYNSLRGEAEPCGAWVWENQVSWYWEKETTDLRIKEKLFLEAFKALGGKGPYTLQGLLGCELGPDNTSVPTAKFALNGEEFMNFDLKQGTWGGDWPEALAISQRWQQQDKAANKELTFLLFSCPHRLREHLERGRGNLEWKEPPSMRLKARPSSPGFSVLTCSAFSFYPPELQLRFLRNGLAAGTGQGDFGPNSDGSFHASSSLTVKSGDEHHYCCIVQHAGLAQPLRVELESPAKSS
Chain of biotinylated human FcRn (p51 subunit residues 24-297 with C-terminal Avi-tag; beta2-microglobulin residues 21-119) (human) (P61769 21-119 limits assumed, chain 2 of 2, further chain): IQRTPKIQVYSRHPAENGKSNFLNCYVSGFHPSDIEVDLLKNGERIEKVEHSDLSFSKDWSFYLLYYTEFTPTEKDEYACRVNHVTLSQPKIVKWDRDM
Experiment [11] deals with rat FcRn (rat) (UniProt P13599). Kind of experiment: Biacore SPR, pH 6.0. This is another data set of the same source.
Experiment [12] addresses biotinylated human FcRn (human) (UniProt P55899). Kind of experiment: Biacore SPR, pH 6.0.
For experiment [13] the target is unchanged. Kind of experiment: Biacore, pH 6.0, apparent KD.
Experiment [14] concerns the target biotinylated human FcRn (p51 subunit residues 24-297 with C-terminal Avi-tag; beta2-microglobulin residues 21-119) (human) (UniProt P55899). Kind of experiment: Biacore SPR, pH 7.4, steady state.
Experiment [15] concerns the target rat FcRn (rat) (UniProt P13599). Kind of experiment: Biacore SPR, pH 7.4.
Experiment [16] concerns the target biotinylated human FcRn (human) (UniProt P55899). Kind of experiment: Biacore SPR, pH 7.4.
For experiment [17] the target is unchanged. Kind of experiment: Biacore, pH 6.0.
Experiment [18] shares this target. Kind of experiment: Biacore SPR, pH 6.0. The source holds these as a separate data set.
Experiment [19] addresses biotinylated human FcRn (p51 subunit residues 24-297 with C-terminal Avi-tag; beta2-microglobulin residues 21-119) (human) (UniProt P55899). Kind of experiment: Biacore SPR, pH 6.0.
For experiment [20], the target named is Human CD16a (FcγRIIIa V158) with C-terminal HPC4 tag (human) (UniProt P08637). Kind of experiment: Biacore SPR, FcγRIIIa-V158 captured, pH 7.4.
In experiment [21] the target is biotinylated cynomolgus FcRn (cynomolgus) (UniProt Q8SPV9). Kind of experiment: Biacore, biotin-captured cFcRn, pH 6.0.
Experiment [22] addresses Human CD16a (FcγRIIIa residues 17-208 with C-terminal HPC4 tag and valine at position 158) (human) (UniProt P08637). Kind of experiment: Biacore SPR, HPC4-tagged FcγRIIIa-V158 captured by anti-HPC4, pH 7.4.
In experiment [23] the target is biotinylated cynomolgus FcRn (cynomolgus) (UniProt Q8SPV9). Kind of experiment: Biacore, biotin-captured cFcRn, pH 7.4.
For experiment [24] the target is unchanged. Kind of experiment: Biacore, biotin-captured cFcRn, pH 8.0.
Experiment [25] concerns the target biotinylated human FcRn (human) (UniProt P55899). Kind of experiment: Biacore, biotin-captured hFcRn, pH 9.0, 1000 nM antibody.
For experiment [26] the target is unchanged. Kind of experiment: Biacore, biotin-captured hFcRn, pH 7.4, 1000 nM antibody.
Experiment [27] has the same target. Kind of experiment: Biacore, biotin-captured hFcRn, pH 8.0, 1000 nM antibody.
Experiment [28] has as its target biotinylated cynomolgus FcRn (cynomolgus) (UniProt Q8SPV9). Kind of experiment: Biacore, biotin-captured cFcRn, pH 9.0, 1000 nM antibody.
The target is the same in experiment [29]. Kind of experiment: Biacore, biotin-captured cFcRn, pH 7.4, 1000 nM antibody.
The target of experiment [30] is biotinylated human FcRn (p51 subunit residues 24-297 with C-terminal Avi-tag; beta2-microglobulin residues 21-119) (human) (UniProt P55899). Kind of experiment: Biacore; inverse ratio (RU at pH 7.4 over affinity at pH 6.0).
The target of experiment [31] is biotinylated human FcRn (human) (UniProt P55899). Kind of experiment: Biacore, biotin-captured hFcRn, pH 7.4.
Chain of biotinylated human FcRn (human) (P55899 24-297 limits assumed, chain 1 of 2): as the sequence (P55899 24-297 limits assumed, chain 1 of 2) above
Chain of biotinylated human FcRn (human) (P61769 21-119 limits assumed, chain 2 of 2, further chain): as the sequence (P61769 21-119 limits assumed, chain 2 of 2, further chain) above
For experiment [32] the target is unchanged. Kind of experiment: Biacore, biotin-captured hFcRn, pH 8.0.
Experiment [33] concerns the target biotinylated cynomolgus FcRn (cynomolgus) (UniProt Q8SPV9). Kind of experiment: Biacore, biotin-captured cFcRn, pH 8.0, 1000 nM antibody.
Experiment [34] concerns the target biotinylated human FcRn (human) (UniProt P55899). Kind of experiment: Biacore, biotin-captured hFcRn, pH 6.0.
For experiment [35] the target is unchanged. Kind of experiment: Biacore SPR, pH 7.4, 1000 nM antibody.
The next experiment addresses mouse FcRn (mouse) (UniProt Q61559). Kind of experiment: Biacore, pH 7.4, steady state response.
For experiment [36], the target named is biotinylated cynomolgus FcRn (cynomolgus) (UniProt Q8SPV9). Kind of experiment: Biacore, pH 7.4, steady state response.
In experiment [37] the target is Human CD16a (FcγRIIIa V158) with C-terminal HPC4 tag (human) (UniProt P08637). Kind of experiment: Biacore, FcγRIIIa V158 captured, relative to WT of the same backbone.

Chain of mouse FcRn (mouse) (Q61559 22-297 limits assumed, chain 1 of 2): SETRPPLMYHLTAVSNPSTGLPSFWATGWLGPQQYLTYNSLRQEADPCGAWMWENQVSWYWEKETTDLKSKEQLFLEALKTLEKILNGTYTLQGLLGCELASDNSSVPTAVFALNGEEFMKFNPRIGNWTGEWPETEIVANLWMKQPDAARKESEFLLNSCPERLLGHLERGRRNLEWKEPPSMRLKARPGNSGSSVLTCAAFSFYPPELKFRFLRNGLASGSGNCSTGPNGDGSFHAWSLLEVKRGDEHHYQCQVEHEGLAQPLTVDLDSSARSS
Chain of mouse FcRn (mouse) (P01887 21-119 limits assumed, chain 2 of 2, further chain): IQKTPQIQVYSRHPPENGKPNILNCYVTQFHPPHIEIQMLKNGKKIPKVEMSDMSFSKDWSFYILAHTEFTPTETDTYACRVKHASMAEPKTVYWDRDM
Chain of rat FcRn (rat) (P13599 23-298 limits assumed, chain 1 of 2): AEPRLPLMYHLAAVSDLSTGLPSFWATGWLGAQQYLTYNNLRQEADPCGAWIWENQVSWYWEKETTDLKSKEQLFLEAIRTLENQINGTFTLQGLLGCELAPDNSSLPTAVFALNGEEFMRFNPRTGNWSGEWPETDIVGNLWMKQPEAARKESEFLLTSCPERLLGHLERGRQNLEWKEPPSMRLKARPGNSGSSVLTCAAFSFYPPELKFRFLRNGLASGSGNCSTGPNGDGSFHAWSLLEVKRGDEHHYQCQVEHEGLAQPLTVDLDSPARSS
Chain of rat FcRn (rat) (P07151 21-119 limits assumed, chain 2 of 2, further chain): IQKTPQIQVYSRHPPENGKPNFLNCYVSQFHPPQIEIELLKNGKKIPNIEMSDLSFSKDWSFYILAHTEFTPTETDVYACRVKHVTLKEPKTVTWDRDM
Chain of Human CD16a (FcγRIIIa residues 17-208 with C-terminal HPC4 tag and valine at position 158) (human) (P08637 17-208 F176V): as the sequence (P08637 17-208 F176V) above

In the case of mAb1 AAA (T307A/E380A/N434A) (antibody), the Steady State RU with rat FcRn (rat) [1] and with rat FcRn (rat) [4] was 23.6 RU in each case. Also, the values for the Kd (in experiment [2]; in the experiment with rat FcRn (rat) [3]; with rat FcRn (rat) [7]) were 450 nM, 77 nM and 77 nM, respectively. The substance further registered a FcRn affinity column elution pH in experiment [5] of 7.94 pH. Moreover, the dissociation rate constant (koff) in the experiment with rat FcRn (rat) [6] is 0.0117 s⁻¹; with rat FcRn (rat) [7] it was 0.0117 s⁻¹; with rat FcRn (rat) [8] it was 0.00377 s⁻¹. Moreover, the on-rate (kon) with rat FcRn (rat) [6] and in the experiment with rat FcRn (rat) [7] was 157000 M⁻¹ s⁻¹ in each case.
Take mAb1 MDQN (T256D/T307Q) (antibody): the Steady State RU in the experiment with rat FcRn (rat) [1] worked out at 39.1 RU; in [9], 10.7 RU; in the experiment with rat FcRn (rat) [15], 39.1 RU; in experiment [16], 10.7 RU. For the same substance, in experiment [10], the Ratio (pH 6.0/pH 7.4) was determined as 403000. In addition, the Kd turned out to be 600 nM in [2]; 9.5 nM in the experiment with rat FcRn (rat) [11]; 9.5 nM in the experiment with rat FcRn (rat) [3]; 232 nM in experiment [13]; 9.54 nM in the experiment with rat FcRn (rat) [7]; 232 nM in experiment [18]. For the same substance, the dissociation rate constant (koff) in experiment [12] amounted to 0.087 s⁻¹; with rat FcRn (rat) [6], 0.0013 s⁻¹; in experiment [17], 0.087 s⁻¹; with rat FcRn (rat) [7], 0.00127 s⁻¹; in [18], 0.0872 s⁻¹. Further, the on-rate (kon) in experiment [12] came to 380000 M⁻¹ s⁻¹; with rat FcRn (rat) [6], 13000 M⁻¹ s⁻¹; in experiment [17], 380000 M⁻¹ s⁻¹; in the experiment with rat FcRn (rat) [7], 133000 M⁻¹ s⁻¹; in [18], 376000 M⁻¹ s⁻¹. This substance also registered a Steady State Binding, pH 7.4 (RU) in [14] of 10.7 RU. The substance further had a FcRn affinity column elution pH in experiment [5] of 7.92 pH. Besides, in experiment [19], the Ka worked out at 4.31e+06 M⁻¹. Further, in experiment [20], the FcγRIIIa V158 affinity fold change relative to WT was determined as 0.73 fold.
“mAb1 MDWY (T256D/T307W/N434Y) (antibody)”: the Ratio (pH 6.0/pH 7.4) is 1.42e+06 in [10] and 7.02e-07 in experiment [30]. Moreover, the Kd was 15 nM in experiment [21]; 85 nM in [23]; 1200 nM in [24]; 101 nM in [31]; 2700 nM in experiment [32]; 18 nM in experiment [34]. The dissociation rate constant (koff) came to 0.0103 s⁻¹ in [21]; 0.029 s⁻¹ in [23]; 0.69 s⁻¹ in [24]; 0.05 s⁻¹ in [31]; 0.54 s⁻¹ in experiment [32]; 0.0123 s⁻¹ in [34]. Further, the kon in experiment [21] was 700000 M⁻¹ s⁻¹; in experiment [23], 350000 M⁻¹ s⁻¹; in [24], 620000 M⁻¹ s⁻¹; in experiment [31] it was 500000 M⁻¹ s⁻¹; in experiment [32] it was 260000 M⁻¹ s⁻¹; in [34] it was 700000 M⁻¹ s⁻¹. In [22], this substance registered a FcγRIIIa Binding Steady State RU of 211 RU. The Steady State RU in experiment [25] amounted to 0.7 RU; in experiment [26] it was 125 RU; in [27], 145 RU; in experiment [28], 1.3 RU; in [29], 165 RU; in [33] it was 197 RU. This substance also returned a Steady State Binding, pH 7.4 (RU) in experiment [14] of 59 RU. The Ka in [19] worked out at 8.4e+07 M⁻¹.
Regarding mAb1 T307E (antibody), the Kd with rat FcRn (rat) [3] is 141 nM; in experiment [13], 8130 nM; with rat FcRn (rat) [7], 141 nM; in experiment [18], 8130 nM. Also, the results for the Steady State RU (with rat FcRn (rat) [4]; in [35]) were 21.5 RU and 5.7 RU, respectively. The FcRn affinity column elution pH in [5] stood at 7.58 pH. Further, the dissociation rate constant (koff) in the experiment with rat FcRn (rat) [6] was 0.006 s⁻¹; in experiment [17] it was 0.3 s⁻¹; in the experiment with rat FcRn (rat) [7], 0.00603 s⁻¹; in experiment [18] it was 0.298 s⁻¹; with rat FcRn (rat) [8], 0.00329 s⁻¹. In addition, the kon is 56000 M⁻¹ s⁻¹ with rat FcRn (rat) [6], 44000 M⁻¹ s⁻¹ in experiment [17], 55500 M⁻¹ s⁻¹ with rat FcRn (rat) [7] and 43700 M⁻¹ s⁻¹ in experiment [18].
Take mAb1 YDTN (M252Y/T256D) (antibody): the Steady State RU came to 56 RU in the experiment with rat FcRn (rat) [1], 9.7 RU in experiment [9], 56 RU in the experiment with rat FcRn (rat) [15] and 9.7 RU in experiment [16]. The Kd in [2] is 1060 nM; with rat FcRn (rat) [11], 5.9 nM; with rat FcRn (rat) [3], 5.9 nM; in the experiment with rat FcRn (rat) [7] it was 5.86 nM. The same substance yielded a Steady State Binding, pH 7.4 (RU) in [14] of 9.7 RU. This substance also showed a FcRn affinity column elution pH in [5] of 8.29 pH.
Regarding “mAb1 YDWY (M252Y/T256D/T307W/N434Y) (antibody)”, the Kd is 3.2 nM in experiment [21]; 49 nM in experiment [23]; 1500 nM in experiment [24]; 700 nM in experiment [32]; 5.2 nM in [34]. Also, the FcγRIIIa Binding Steady State RU in experiment [22] is 136 RU. The Steady State RU in [25] was determined as 10.4 RU; in experiment [26], 166 RU; in experiment [27], 281 RU; in [28], 16 RU; in experiment [29] it was 178 RU; in experiment [33], 354 RU. The substance further registered a Steady State Binding, pH 7.4 (RU) in experiment [14] of 88.5 RU. In addition, in [19], the Ka was 2.66e+08 M⁻¹.
Take mAb2 DQ (T256D/T307Q) (antibody): the Steady State RU in experiment [9] was 14 RU; in the experiment with mouse FcRn (mouse), 248 RU; in [36] it was 11 RU. In experiment [37], the FcγRIIIa V158 Affinity Fold Change (fold relative to WT) was 1.05.
With mAb2 DW (T256D/T307W) (antibody), the Steady State RU was found to be 18 RU in experiment [9], 257 RU with mouse FcRn (mouse) and 15 RU in experiment [36]. Besides, in experiment [37], the FcγRIIIa V158 Affinity Fold Change (fold relative to WT) was determined as 1.15.
For mAb2 LS (M428L/N434S) (antibody), in that order: 44 RU, 285 RU, 38 RU and 1.23.
For mAb2 YD (M252Y/T256D) (antibody), the Steady State RU is 27 RU in experiment [9], 394 RU in the experiment with mouse FcRn (mouse) and 22 RU in experiment [36]. Besides, the FcγRIIIa V158 Affinity Fold Change (fold relative to WT) in experiment [37] stood at 0.58.

Broadly, the koff is the first-order rate constant of dissociation. Read a low koff as slow dissociation. In general, kon refers to the second-order rate constant of association. A high value points to faster complex formation.
